Data published in patent US20110281938A1 (BAXTER INTERNATIONAL, published 2011).

Biological target: T1, Full-length TFPI (recombinant human tissue factor pathway inhibitor, American Diagnostica, E. coli expressed) (human, UniProt P10646 29-304)
T1 construct: also called recombinant TFPI; human TFPI
T1 sequence: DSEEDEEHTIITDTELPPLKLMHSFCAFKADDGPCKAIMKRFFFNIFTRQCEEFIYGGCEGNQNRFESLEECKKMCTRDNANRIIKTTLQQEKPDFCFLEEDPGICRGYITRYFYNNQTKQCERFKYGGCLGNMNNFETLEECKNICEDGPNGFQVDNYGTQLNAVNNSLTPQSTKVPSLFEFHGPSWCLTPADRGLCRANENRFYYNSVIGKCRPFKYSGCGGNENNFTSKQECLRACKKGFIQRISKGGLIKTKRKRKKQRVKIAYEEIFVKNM
Test: dot-blot (nitrocellulose filtration) binding competition: 10 nM TFPI, trace radiolabeled aptamer ARC17480 as the displaced ligand, FXa varied 2000-0.10 nM
Procedure: For these experiments, human TFPI at a final concentration of 10 nM (American Diagnostica, Stamford, Conn., catalog #4900PC) was incubated with trace amounts of radiolabeled ARC17480 and different concentrations of human FXa (Haematologic Technologies, Essex Junction, Vt. catalog #HCXA-0060) or ARC19499 (2000 nM-0.10 nM). A control was also carried out in the absence of TFPI in which trace amounts of radiolabeled ARC17480 was incubated with different concentrations of FXa (2000 nM-0.10 nM). The percentage of radiolabeled ARC17480 bound was plotted as a function of competitor concentration and fit to the equation y=(max/(1+x/IC₅₀))+int, where y=the percentage of radiolabeled ARC17480 bound, x=the concentration of competitor, max=the maximum radiolabeled ARC17480 bound, and int=the y-intercept, to generate an IC₅₀ value for binding-competition. […] FXa partially competes with ARC17480 for binding to TFPI, as evidenced by a plateau in the competition-binding curve at concentrations above ˜75 nM. In contrast, ARC19499 completely competes with radiolabeled ARC17480 for binding to TFPI.

IC50 (read off the curve): ~7 nM
B1: human FXa (Haematologic Technologies, catalog #HCXA-0060) (enzyme)
chain 1: ANSFLEEMKKGHLERECMEETCSYEEAREVFEDSDKTNEFWNKYKDGDQCETSPCQNQGKCKDGLGEYTCTCLEGFEGKNCELFTRKLCSLDNGDCDQFCHEEQNSVVCSCARGYTLADNGKACIPTGPYPCGKQTLER
chain 2: IVGGQECKDGECPWQALLINEENEGFCGGTILSEFYILTAAHCLYQAKRFKVRVGDRNTEQEEGGEAVHEVEVVIKHNRFTKETYDFDIAVLRLKTPITFRMNVAPACLPERDWAESTLMTQKTGIVSGFGRTHEKGRQSTRLKMLEVPYVDRNSCKLSSSFIITQNMFCAGYDTKQEDACQGDSGGPHVTRFKDTYFVTGIVSWGEGCARKGKYGIYTKVTAFLKWIDRSMKTRGLPKAKSHAPEVITSSPLK
notes: FXa is a two-chain protease; also called Factor Xa
